Measured values: patent publication US10829757B2, “MUB motif is an inhibitor of E2-ubiquitin thioester formation” (Saint Louis University, priority 2016, dated 2020)
No end group written: not given here.

What was measured:
AtUBC8~Ub = target: T1, AtUBC8~Ub (Arabidopsis thaliana, UniProt P35131); assay: E2~Ub thioester discharge assay; type: biochemical; conditions: 30 μM MUB, 100 mM lysine
T1 construct: 6xHis; made in house; host or cells: E. coli Rosetta 2 (DE3) pLacI
Experimental: FIG. 11. […] AtUBC8˜Ub discharging assay is exposed to AtMUB3. The quantification is presented in line graph, top panel (+/−SEM and n=3 for all data points), while the immunoblot (IB) of triple parallel experiments is shown in bottom panel.
AtUBC8 (3 μM) was charged by incubating with 0.25 μM E1, 50 mM HEPES, pH 8.0, 1 mM Mg-ATP and 12 μM K0Ub for 3 min. The E1 was inactivated for 90 seconds with 50×E1 stop buffer (BostonBiochem). Lysine (100 mM) was added to the reaction with or without 30 μM MUB to initiate Ub leaving from the E2 active site.

AtUBC8 Ser22Arg = target: T2, AtUBC8 Ser22Arg (Arabidopsis thaliana, UniProt P35131, S22R); assay: E2~Ub thioester formation assay, AtUBC8 Ser22Arg; type: biochemical; conditions: AtMUB3 30 μM, three minute reaction
T2 construct: 6xHis (C); made in house; host or cells: E. coli Rosetta 2 (DE3) pLacI
T2 sequence (P35131 whole entry S22R): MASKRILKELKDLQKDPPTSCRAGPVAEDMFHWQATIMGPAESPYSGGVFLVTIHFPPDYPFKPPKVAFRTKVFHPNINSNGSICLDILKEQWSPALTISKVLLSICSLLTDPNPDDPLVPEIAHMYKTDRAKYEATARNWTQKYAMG
Experimental: (§1) E2˜Ub thioester formation assays were performed at 25° C. using 0.25 μM E1, 3 μM E2, 12 μM Ub, and 50 mM HEPES, pH 8.0, initiated with addition of 1 mM Mg-ATP. When included, 30 μM AtMUB3 was pre-incubated for 15 min at 25° C. Reactions were terminated by the addition of non-reducing or reducing Laemmli buffer. Protein samples were visualized and analyzed as described, above, and quantified using Fuji Film Multi-Gauge software. Relative inhibition efficiency (RIE) was determined by comparing the inhibition efficiency of AtMUB3 mutants to wild type as follows; RIE=[1−(E2˜Ub with AtMUB3 mutant/E2)]/[1−(E2˜Ub with WT AtMUB3/E2)].
(§2) To assess whether MUB binding regulates E2 function, E2˜Ub thioester formation assays were performed on AtUBC8. […] AtUBC8-Ub peptide linkages, which could complicate the analysis, were observed by 10 minutes, so three minute reactions were used in subsequent assays. Ser22 on the so-called backside binding site (BBS) of AtUBC8 is distant from the active site Cys85, and was previously determined to interfere with MUB-induced E2 localization to the PM (Dowil et al., 2011). E2Ub formation on AtUBC8 Ser22Arg was unaffected by AtMUB3, supporting the requirement of a direct interaction for inhibition (FIG. 1C). Since MUBs interact specifically with Arabidopsis group VI E2s, two additional subfamily members, AtUBC10 and AtUBC28 were tested. […]

AtUBC8 [1] = target: T3, AtUBC8 (Arabidopsis thaliana, UniProt P35131); assay: GST pull-down assay with GST-AtUBC8; type: binding; conditions: immunoblot
T3 construct: 6xHis; made in house; host or cells: E. coli Rosetta 2 (DE3) pLacI
T3 sequence (P35131 whole entry): as the sequence (P35131 whole entry S22R) above, with R22S counted along it
Experimental: (§3) GST-tagged AtUBC8 was induced as described above, and the soluble extract fraction was immobilized on GSH resin (Thermo Scientific) for 20 min, followed by three washes with sonication buffer. Equi-molar His-tagged AtMUB3, AtMUB3 mutants and Ub were incubated separately with AtUBC8 loaded GSH resin for 15 min, washed three times using sonication buffer, and boiled in Laemmli buffer. MUB recovery was determined by immunoblotting and chemiluminescent detection using Fujifilm LAS4000 imaging. For FLAG pull-down assay, His-tagged AtUBC8C85S—O-Ub was generated (Sakata et al., 2010). Flag-tagged AtMUB3 was immobilized on FLAG resin (Thermo Scientific) for 20 min, followed by three washes with sonication buffer. AtUBC8C85S—O-Ub protein or Ub were incubated separately with AtMUB3 loaded FLAG resin for 15 min, washed three times using sonication buffer, and boiled in Laemmli buffer.

[2] = target: T4, AtUBC8C85S with Ub linked to the active site through an oxyester bond (Arabidopsis thaliana, UniProt P35131, C85S); assay: FLAG pull-down assay with FLAG-AtMUB3; type: binding; conditions: immunoblot
T4 construct: His; made in house; host or cells: E. coli Rosetta 2 (DE3) pLacI
T4 sequence (P35131 whole entry C85S): as the sequence (P35131 whole entry S22R) above, with R22S, C85S counted along it
Experimental: as §3

AtUBC36 = target: T5, AtUBC36 (Arabidopsis thaliana, UniProt Q9FZ48); assay: E2~Ub thioester formation assay, AtUBC36; type: biochemical; conditions: group XV E2, AtMUB3 30 μM
T5 construct: 6xHis (N); made in house; host or cells: E. coli Rosetta 2 (DE3) pLacI
T5 sequence (Q9FZ48 1-153): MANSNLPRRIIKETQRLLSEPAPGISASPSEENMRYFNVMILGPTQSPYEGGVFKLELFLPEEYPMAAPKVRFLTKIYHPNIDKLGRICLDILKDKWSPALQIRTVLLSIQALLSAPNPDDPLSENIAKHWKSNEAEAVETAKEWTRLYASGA
Experimental: as §1, §2

AtUBC4 = target: T6, AtUBC4 (Arabidopsis thaliana, UniProt P42748); assay: E2~Ub thioester formation assay, AtUBC4; type: biochemical; conditions: group IV E2, AtMUB3 30 μM
T6 construct: 6xHis (N); made in house; host or cells: E. coli Rosetta 2 (DE3) pLacI
T6 sequence (P42748 1-187): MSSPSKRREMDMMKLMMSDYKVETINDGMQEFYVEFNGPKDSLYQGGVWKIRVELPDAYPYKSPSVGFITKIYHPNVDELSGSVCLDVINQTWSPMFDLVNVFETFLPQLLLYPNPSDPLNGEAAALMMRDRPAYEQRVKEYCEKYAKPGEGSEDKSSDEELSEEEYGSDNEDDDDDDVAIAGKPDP
Experimental: as §1, §2

AtUBC8 [3] = target: T3, AtUBC8; assay: E2~Ub thioester formation assay (immunoblot), AtUBC8; type: biochemical; conditions: for inhibition of AtUBC8~Ub thioester formation: MUB protein 30 μM pre-incubated 15 min, 3 μM E2, immunoblot
Experimental: E2 Thioester Formation Assays.
as §1
Lap-Bar Peptide Inhibition Assay.
Lap-Bar custom peptide ([…] SEQ ID NO: 1, Sigma-Aldrich and Peptide 2.0 Inc.), three scrambled peptides ([…] SEQ ID NO: 4, […] SEQ ID NO: 49, […] SEQ ID NO: 50, Peptide 2.0 Inc.) and amino acid controls were dissolved in 50 mM Tris-HCl, pH 7.5, 300 mM NaCl, and 10% Glycerol.

Ube2D3 [4] = target: T7, Ube2D3 (Homo sapiens, UniProt P61077); assay: E2~Ub thioester formation assay, Ube2D3; type: biochemical; conditions: immunoblot
T7 construct: 6xHis (C); made in house; host or cells: E. coli Rosetta 2 (DE3) pLacI
T7 sequence (P61077 whole entry): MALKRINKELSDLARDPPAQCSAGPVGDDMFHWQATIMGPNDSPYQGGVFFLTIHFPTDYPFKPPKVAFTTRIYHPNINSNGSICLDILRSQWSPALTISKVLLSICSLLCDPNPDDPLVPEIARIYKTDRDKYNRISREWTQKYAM
Experimental: as §1
To test whether the differences between plant and animal LBLs influence their activity, the inventors compared them in reciprocal inhibition experiments. […] Taken together, MUB inhibition of E2Ub formation is conserved and broadly relevant to organisms that use the ubiquitylation system.

AtUBC10 = target: T8, AtUBC10 (Arabidopsis thaliana, UniProt P35133); assay: E2~Ub thioester formation assay, AtUBC10; type: biochemical; conditions: group VI E2, AtMUB3 30 μM
T8 construct: 6xHis (N); made in house; host or cells: E. coli Rosetta 2 (DE3) pLacI
T8 sequence (P35133 whole entry): as the sequence (P35131 whole entry S22R) above, with R22S, A41S, S46A, R131K, A132N, A136S, N140S counted along it
Experimental: as §1, §2

AtUBC28 = target: T9, AtUBC28 (Arabidopsis thaliana, UniProt Q94F47); assay: E2~Ub thioester formation assay, AtUBC28; type: biochemical; conditions: group VI E2, AtMUB3 30 μM
T9 construct: 6xHis (N); made in house; host or cells: E. coli Rosetta 2 (DE3) pLacI
T9 sequence (Q94F47 whole entry): as the sequence (P35131 whole entry S22R) above, with R22S, A41S, E42D, I78V, A136S, N140S counted along it
Experimental: as §1, §2

AtUBC8 [5] = target: T3, AtUBC8; assay: Isothermal titration calorimetry; type: binding; conditions: ITC, 8 μM AtUBC8, 110 μM AtMUB3 titrant, 25 mM HEPES pH 7.5, 200 mM NaCl
Experimental: FIG. 13. AtMUB binds AtUBC8 with submicromolar dissociation constant Kd as measured by isothermal titration calorimetry. Isothermal titration calorimetry (ITC) was performed on 8 μM AtUBC8 with 110 μM AtMUB3 as the titrant using a MicroCal iTC200 (GE). Proteins were purified as described for crystallization and dialyzed extensively against a buffer containing 25 mM HEPES, pH 7.5, 200 mM NaCl, 1 mM TCEP. Data was processed with MicroCal Origin 7 software, and normalized against the dialysis buffer's heat of dilution. This plot is representative of 3 independent experiments, which yielded similar results but were performed at different concentrations of NaCl.

Ube2D3 [6] = target: T7, Ube2D3; assay: HTRF-FRET E2 activation assay; type: biochemical
Experimental: FIG. 12. Ube2D3 Activation. Using HTRF-FRET, Ube2D3 activation was monitored with indicated concentrations of HsMUB to establish an inhibition curve. The initial velocity was linear over the first 10 minutes and is represented as percent E2 activated, with 100% velocity taken in the absence of MUB and 0% in the absence of ATP. Plot represents three independent assays+s.e.m., fit to the one-site binding equation. An additional three assays fit to the Hill equation with coefficient n produced nearly identical results with n1.
HTRF-FRET E2 activation assays were conducted using reagents adapted from the E1/E2 Lite kit (LifeSensors, Malvern, Pa.). […] Assays were read kinetically using a BioTek Synergy 4 plate reader equipped with Excitation 340/30 nm, Emission1 495/10 nm, Emission2 520/25 nm bandpass filters, a 400 nm dichroic mirror, and a Xenon flash lamp set to read Terbium and Fluorescein emission with a 100 μs time delay and 200 μs data collection time. The corrected FRET ratio was calculated as described in the TR-FRET manual (Molecular Devices): [(Em520/Em490)−(P*Em490))/Em490]*10000, where P=Em520/Em490 with terbium only, a proportionality factor to correct for terbium donor contribution to acceptor emission. The linear slope of the first 10 minutes of the reaction was determined as the initial velocity. […]

T1 sequence (P35131 whole entry): as the sequence (P35131 whole entry S22R) above, with R22S counted along it

AtMUB3: Arabidopsis thaliana Membrane-anchored Ubiquitin-fold protein 3, recombinant, His-tagged (VGQCKTPFGDIAGGVIVMHVV; also: His tag; listed as Arabidopsis thaliana)
Ub discharge from AtUBC8~Ub (AtUBC8~Ub): increase Ub discharging
Ub discharge from AtUBC8~Ub (AtUBC8~Ub; listed as MUB): slightly faster
inhibition of E2~Ub formation on AtUBC8 Ser22Arg (AtUBC8 Ser22Arg): unaffected
binding to GST-AtUBC8 in pull-down (AtUBC8 [1]): efficient bait
pull-down of AtUBC8C85S-O-Ub [2]: can pull-down
inhibition of AtUBC36 activation (AtUBC36): unaffected
inhibition of AtUBC4 activation (AtUBC4): unaffected
inhibition of AtUBC8~Ub thioester formation (AtUBC8 [3]): strongly reduced
inhibition of Ube2D3~Ub formation (Ube2D3 [4]): does not inhibit
inhibition of AtUBC10 activation (AtUBC10): strongly inhibited
inhibition of AtUBC28 activation (AtUBC28): strongly inhibited
dissociation constant Kd (AtUBC8 [5]): submicromolar

LKLPFGKT [minimal human LBL, human MUB Lap Bar Loop eight-residue peptide]
inhibition of AtUBC8~Ub formation by peptides (AtUBC8 [3]; peptide 5 mM, 3 μM AtUBC8): potent inhibitory activity

B1: AtMUB3 F77A (protein, UniProt Q9SW27 1-115, looked up, variant F77A)
Membrane-anchored …: MPEEESIDIKFRLYDGSDIGPFRYSAASTVDFLKQRVVSDWPKGKTVVPKGINEVKLISSGKILENNKTVGQCKTPAGDIAGGVIVMHVVVQPSLAKSKTEKKVDKAPKAVICTC
inhibition of AtUBC8~Ub thioester formation (AtUBC8 [3]): strong loss of inhibition

B2: HsMUB: human version of MUB, aka Ubl3, SEQ ID NO: 2 (protein, listed as Homo sapiens)
chain: MSSNVPADMINLRLILVSGKTKEFLFSPNDSASDIAKHVYDNWPMDWEEEQVSSPNILRLIYQGRFLHGNVTLGALKLPFGKTTVMHLVARETLPEPNSQGQRNREKTGESNCCVIL
maximal inhibition of Ube2D3 activation (Ube2D3 [6]): up to 70%
inhibition of AtUBC8~Ub thioester formation (AtUBC8 [3]): potent inhibition
inhibition of Ube2D3~Ub formation (Ube2D3 [4]): potent inhibition
